From publication PMC12051542, “Identification of the phosphatase essential for riboflavin biosynthesis in Aquifex aeolicus” (The Journal of Biological Chemistry, 2025)

What was measured:
[1] = target: putative phosphatase 17 (PP17), a histidine family phosphatase (HFP), Aquifex aeolicus (Aquifex aeolicus); test: SEC; preparative gel filtration, 120 ml HiLoad 16/600 Superdex 75 prep grade column, 50 mM Hepes pH 8.0, 150 mM NaCl, 20% glycerol
[2] = target: the molecule itself; test: SEC; 120 ml HiLoad 16/600 Superdex 75 prep grade column, 50 mM Hepes pH 8.0, 150 mM NaCl, 20% glycerol; molecular weight from a standard curve of commercial standard proteins (65 kDa)

Row | stoichiometry N [1] | Molecule | stoichiometry N [2]
1 | 2 | putative phosphatase 17 (PP17), a histidine family phosphatase (HFP), Aquifex aeolicus (enzyme) | –
2 | – | putative phosphatase 11 (PP11), annotated as a myo-inositol-1(or 4)-monophosphatase (IMP), Aquifex aeolicus (enzyme, Aquifex aeolicus putative phosphatase 11, annotated as myo-inositol-1(or 4)-monophosphatase; codon optimised, in pET20b with a stop codon before the C-terminal histidine tag so that the protein is expressed in the native form; Untagged; Two magnesium ions and a phosphate in the active site of the structure; source: E. coli BL21 (DE3), purified (heat 70 °C, gel filtration)) MENLKKYLEVAKIAALAGGQVLKENFGKVKKENIEEKGEKDFVSYVDKTSEERIKEVILKFFPDHEVVGEEMGAEGSGSEYRWFIDPLDGTKNYINGFPIFAVSVGLVKGEEPIVGAVYLPYFDKLYWGAKGLGAYVNGKRIKVKDNESLKHAGVVYGFPSRSRRDISIYLNIFKDVFYEVGSMRRPGAAAVDLCMVAEGIFDGMMEFEMKPWDITAGLVILKEAGGVYTLVGEPFGVSDIIAGNKALHDFILQVAKKYMEVAV | 2
